Assay results taken from article PMC8324300, “CDK1 controls CHMP7-dependent nuclear envelope reformation” (eLife, 2021).

Tests used:
Settings in all cases: both partners purified
[1] = biological target: T1, recombinant CHMP7 (full length, wild type) (human, UniProt Q8WUX9 1-453); assay: co-IP; purified CHMP7 or S3D/S441D with HA-LEM2^CT at 1:2 in TKD buffer, overnight at 4°C; CHMP7 captured on anti-CHMP7 Dynabeads; washes with 0.05% Tween-20; blots with anti-CHMP7 and anti-HA
T1 construct: CHMP7, human, full-length open reading frame; the TEV site cleaves at the 1st methionine; In the CDK1 experiments this is the sample incubated with CDK1:CyclinB1 without ATP; also called CHMP7 wildtype; WT; source: E. coli BL21(DE3), purified (Ni-NTA, TEV cleavage, Superdex 200, monomeric fractions); not shown: 2xHis6, N-terminal, cleaved; NusA, N-terminal, cleaved
T1 sequence (looked up): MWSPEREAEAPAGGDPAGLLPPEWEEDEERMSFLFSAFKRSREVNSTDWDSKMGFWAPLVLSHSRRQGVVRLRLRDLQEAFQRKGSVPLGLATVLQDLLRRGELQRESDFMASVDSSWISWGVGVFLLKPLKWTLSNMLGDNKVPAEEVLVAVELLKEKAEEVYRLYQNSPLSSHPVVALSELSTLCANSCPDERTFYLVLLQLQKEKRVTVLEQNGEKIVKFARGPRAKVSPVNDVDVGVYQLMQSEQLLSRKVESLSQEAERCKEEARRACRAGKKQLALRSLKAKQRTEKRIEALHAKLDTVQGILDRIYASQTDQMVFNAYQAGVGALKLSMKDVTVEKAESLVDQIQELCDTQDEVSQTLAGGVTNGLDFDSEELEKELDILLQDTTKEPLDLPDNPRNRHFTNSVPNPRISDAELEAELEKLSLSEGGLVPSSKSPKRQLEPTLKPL

[2] = biological target: T2, recombinant CHMP7 S3E/S441E (human, UniProt Q8WUX9 1-453, S3E | S441E); assay: co-sedimentation; 5 μM CHMP7 or mutant with 10 μM HA-LEM2^CT (one legend says equimolar) in TKD buffer (50 mM Tris HCl pH 8, 150 mM KCl, 1 mM DTT), room temperature for 2 hr; 22,000 x g for 40 min at 4°C; blots with anti-CHMP7 and anti-HA
T2 construct: CHMP7, human, full length with phosphomimetic residues at Ser3 and Ser441; also called CHMP7 S3E/D441E (as printed once in the methods); source: E. coli BL21(DE3), purified (Ni-NTA, TEV cleavage, Superdex 200); not shown: 2xHis6, N-terminal, cleaved; NusA, N-terminal, cleaved
T2 sequence (looked up): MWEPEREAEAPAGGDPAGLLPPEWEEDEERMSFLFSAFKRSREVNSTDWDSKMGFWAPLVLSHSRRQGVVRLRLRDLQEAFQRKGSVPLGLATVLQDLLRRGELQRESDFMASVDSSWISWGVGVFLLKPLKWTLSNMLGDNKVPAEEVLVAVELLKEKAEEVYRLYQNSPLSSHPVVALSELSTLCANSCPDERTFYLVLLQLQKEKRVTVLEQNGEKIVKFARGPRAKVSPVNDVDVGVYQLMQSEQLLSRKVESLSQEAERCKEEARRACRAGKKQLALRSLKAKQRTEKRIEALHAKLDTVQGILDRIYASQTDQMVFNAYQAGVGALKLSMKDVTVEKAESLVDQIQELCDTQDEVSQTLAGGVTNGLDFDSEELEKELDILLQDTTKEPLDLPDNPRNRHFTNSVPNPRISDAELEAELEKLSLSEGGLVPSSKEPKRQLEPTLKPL

[3] = biological target: T3, recombinant CHMP7 S3D/S441D (human, UniProt Q8WUX9 1-453, S3D | S441D); assay: as above
T3 construct: CHMP7, human, full length with phosphomimetic residues at Ser3 and Ser441; source: E. coli BL21(DE3), purified (Ni-NTA, TEV cleavage, Superdex 200); not shown: 2xHis6, N-terminal, cleaved; NusA, N-terminal, cleaved
T3 sequence (looked up): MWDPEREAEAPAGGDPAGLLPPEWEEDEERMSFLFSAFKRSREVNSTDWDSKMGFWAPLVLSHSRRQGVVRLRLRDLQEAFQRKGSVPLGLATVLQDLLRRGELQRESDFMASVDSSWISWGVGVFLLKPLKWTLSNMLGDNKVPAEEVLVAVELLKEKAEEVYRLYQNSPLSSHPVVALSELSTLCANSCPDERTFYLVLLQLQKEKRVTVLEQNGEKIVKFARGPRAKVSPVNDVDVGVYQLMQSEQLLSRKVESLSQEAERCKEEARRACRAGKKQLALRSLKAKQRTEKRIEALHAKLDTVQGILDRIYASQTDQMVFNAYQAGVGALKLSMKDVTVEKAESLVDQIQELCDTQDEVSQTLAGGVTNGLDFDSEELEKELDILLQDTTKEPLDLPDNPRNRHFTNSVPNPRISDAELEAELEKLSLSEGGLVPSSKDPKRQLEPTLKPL

[4] = biological target: T4, CDK1-phosphorylated CHMP7 (human, UniProt Q8WUX9 1-453, phosphoserine at Ser3 and Ser441 (CDK1 sites named by the paper)); assay: co-IP; CHMP7 pre-incubated with CDK1:CyclinB1 with or without 3 mM ATP, then 5 μM CHMP7 with 10 μM HA-LEM2^CT dialysed overnight at 4°C from HiSalt (250 mM KCl) into LoSalt buffer (30 mM HEPES pH 8, 25 mM KCl, 1 mM DTT); CHMP7 captured on anti-CHMP7 Dynabeads
T4 construct: CHMP7, human, full-length open reading frame, phosphorylated in vitro by CDK1:CyclinB1; also called recombinant CHMP7 incubated with CDK1 and CCNB1 in the presence of ATP; source: E. coli BL21(DE3), purified; phosphorylated in vitro with bought CDK1:CyclinB1 complex (Millipore) and 3 mM ATP; not shown: 2xHis6, N-terminal, cleaved; NusA, N-terminal, cleaved
T4 sequence (looked up): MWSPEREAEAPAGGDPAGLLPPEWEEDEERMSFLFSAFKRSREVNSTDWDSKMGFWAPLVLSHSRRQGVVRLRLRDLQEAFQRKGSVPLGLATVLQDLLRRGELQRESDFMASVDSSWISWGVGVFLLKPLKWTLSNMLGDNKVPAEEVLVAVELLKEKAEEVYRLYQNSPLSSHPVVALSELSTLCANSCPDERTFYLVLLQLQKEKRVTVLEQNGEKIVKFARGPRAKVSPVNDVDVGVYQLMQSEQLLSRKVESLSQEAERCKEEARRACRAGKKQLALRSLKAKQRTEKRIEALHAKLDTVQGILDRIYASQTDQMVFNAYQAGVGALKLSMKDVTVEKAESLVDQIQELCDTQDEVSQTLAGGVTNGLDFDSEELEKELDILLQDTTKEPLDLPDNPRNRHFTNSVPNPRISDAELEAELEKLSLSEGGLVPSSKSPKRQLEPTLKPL

Measured: binding result

B1: recombinant HA-LEM2^CT (LEM2 C-terminal domain 395-503) (domain or fragment, human, UniProt Q8NC56 395-503, looked up)
chain: ILLKYRWRKLEEEEQAMYEMVKKIIDVVQDHYVDWEQDMERYPYVGILHVRDSLIPPQSRRRMKRVWDRAVEFLASNESRIQTESHRVAGEDMLVWRWTKPSSFSDSER
notes: LEM2 (LEMD2), human, codon-optimised synthetic gene, C-terminal domain residues 395-503; also called LEM2's C-terminus; source: E. coli BL21(DE3), purified (Ni-NTA, on-bead TEV cleavage); not shown: 2xHis6, N-terminal, cleaved; NusA, N-terminal, cleaved; HA, N-terminal, kept
binds: all assays above
